Patent publication US20190083662A1 (CENTRE FOR PROBE DEVELOPMENT AND COMMERCIALIZATION, published 2019)

B1: [^177Lu]-Compound A-HuMIGF-1R (antibody, V domains shown)
VH: QVQLVQSGAEVVKPGASVKLSCKASGYTFTSYWMHWVKQRPGQGLEWIGEINPSNGRTNYNQKFQGKATLTVDKSSSTAYMQLSSLTSEDSAVYYFARGRPDYYGSSKWYFDVWGQGTTVTVSSASTKGPSVFPLAPSSKSTSGGTAALG
VL: DVVMTQTPLSLPVSLGDPASISCRSSQSIVHSNVNTYLEWYLQKPGQSPRLLIYKVSNRFSGVPDRFSGSGAGTDFTLRISRVEAEDLGIYYCFQGSHVPPTFGGGTKLEIKRTVAAPSVFIFPPSDEQLKSGTASVVCLLNNFYPREAK
notes: Whole antibody HuMIGF-1R (AVE1642, humanized EM164; MALDI m/z about 149835) conjugated with the chelate Compound A (DOTA-GA anhydride) and loaded with 177Lu; also called 177Lu-DOTA-GA-AVE1642; (Compound A)-HuMIGF-1R radiolabelled with Lu-177
B2: [^177Lu]-Compound B-HuMIGF-1R (antibody, V domains shown)
VH: B1 VH
VL: B1 VL
notes: Whole antibody HuMIGF-1R (AVE1642) conjugated with the chelate Compound B (DOTA-GA with an 11-aminoundecanoyl linker, TFP ester) and loaded with 177Lu; also called Compound B-HuMIGF-1R radiolabelled with Lu-177
B3: [^177Lu]-Compound C-HuMIGF-1R (antibody, V domains shown)
VH: B1 VH
VL: B1 VL
notes: Whole antibody HuMIGF-1R (AVE1642) conjugated with the chelate Compound C (DOTA-GA with a PEG3 linker, TFP ester) and loaded with 177Lu; also called Compound C-HuMIGF-1R radiolabelled with Lu-177

molecular target: T1, insulin-like growth factor-1 receptor (IGF-1R) (human, UniProt P08069 31-1367); assay: saturation radioligand binding on A431 cells, 4 C, specific binding fitted to a single-site hyperbola
T1 construct: whole, on cells; Endogenous receptor on A431 cells ('IGF-1R expressing A431 cell line'); also called IGF-1 receptor
T1 sequence (P08069 31-1367): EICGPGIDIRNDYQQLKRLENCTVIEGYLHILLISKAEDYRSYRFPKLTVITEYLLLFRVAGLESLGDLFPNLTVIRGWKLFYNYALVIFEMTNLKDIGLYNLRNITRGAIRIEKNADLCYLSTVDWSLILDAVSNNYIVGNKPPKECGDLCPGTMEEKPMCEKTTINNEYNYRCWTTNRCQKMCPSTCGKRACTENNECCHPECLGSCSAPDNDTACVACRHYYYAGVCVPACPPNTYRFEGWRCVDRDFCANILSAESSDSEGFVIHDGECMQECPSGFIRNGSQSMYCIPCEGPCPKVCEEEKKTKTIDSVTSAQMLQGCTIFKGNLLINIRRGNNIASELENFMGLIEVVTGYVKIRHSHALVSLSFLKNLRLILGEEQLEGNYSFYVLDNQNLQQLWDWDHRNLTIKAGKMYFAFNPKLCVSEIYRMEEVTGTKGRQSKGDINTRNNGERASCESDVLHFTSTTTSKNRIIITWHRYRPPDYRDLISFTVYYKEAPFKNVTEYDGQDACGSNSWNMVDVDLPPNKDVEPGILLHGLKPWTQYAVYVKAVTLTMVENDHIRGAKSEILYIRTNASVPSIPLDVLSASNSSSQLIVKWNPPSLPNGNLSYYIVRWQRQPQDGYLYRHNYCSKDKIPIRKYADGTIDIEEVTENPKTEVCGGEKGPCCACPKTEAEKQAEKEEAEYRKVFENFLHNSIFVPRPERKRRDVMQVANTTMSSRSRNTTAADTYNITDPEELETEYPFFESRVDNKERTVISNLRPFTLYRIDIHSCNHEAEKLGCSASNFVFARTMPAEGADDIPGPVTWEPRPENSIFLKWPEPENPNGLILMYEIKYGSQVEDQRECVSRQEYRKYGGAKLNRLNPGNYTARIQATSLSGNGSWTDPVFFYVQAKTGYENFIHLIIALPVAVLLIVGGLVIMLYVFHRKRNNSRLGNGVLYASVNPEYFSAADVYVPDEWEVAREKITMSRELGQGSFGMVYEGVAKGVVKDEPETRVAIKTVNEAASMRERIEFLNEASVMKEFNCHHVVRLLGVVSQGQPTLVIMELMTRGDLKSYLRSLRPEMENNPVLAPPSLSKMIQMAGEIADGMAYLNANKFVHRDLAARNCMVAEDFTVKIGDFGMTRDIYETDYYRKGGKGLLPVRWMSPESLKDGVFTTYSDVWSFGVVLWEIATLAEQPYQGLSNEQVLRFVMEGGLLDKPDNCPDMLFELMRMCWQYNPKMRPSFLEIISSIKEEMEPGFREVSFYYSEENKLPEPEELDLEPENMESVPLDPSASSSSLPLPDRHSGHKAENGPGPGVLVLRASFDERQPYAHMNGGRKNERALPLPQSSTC
Experimental: Nonspecific binding is typically assessed by measuring radioconjugate binding in the presence of a fixed concentration of HumIGF-1R that binds to essentially all the receptors. Since all the receptors are occupied by the HumIGF-1R, the radioconjugate only binds nonspecifically. Kd and Bₘₐₓ values are calculated by nonlinear regression analysis and computerized curve fitting.
The purpose of this assay was to ensure that these new radioconjugates maintained binding characteristics consistent with the native antibody in an IGF-1R expressing A431 cell line. Twenty-four hours prior to the start of the experiment, 1.5×10⁵ A431 cells were seeded in 48-well microplates in 500 μl supplemented medium. The radioconjugate was diluted with binding buffer (PBS+0.5% BSA) to a range of concentrations from 0.08 nM to 40 nM; final assay concentration 0.04 to 20 nM. At the start of the assay, the media is aspirated, discarded and 500 μI of serum-free DMEM was added to each well. The plates were incubated at 37° C. for 1 hour. Following incubation, media was aspirated from each well and discarded. The cells were washed and 100 μI of binding buffer (total binding) or 4 μM cold-antibody (non-specific binding) added to designated wells. Plates were incubated at 4° C. for 1 hour with mild shaking. […] The lysates were transferred to counting tubes and run with radioconjugate standards on the Wizard 1470 gamma counter to determine the radioactivity content (in counts per minute (CPM)) for each lysate. The remaining lysate from each well (25 μI) was transferred to a 96-well plate, and the protein content of each lysate determined using a standard protein quantification assay. Total, non-specific and specific ligand binding determinations, mass of bound conjugate in each lysate were calculated by converting lysate CPM to fmol bound using the specific activity of the conjugate standards and then normalizing the fmol bound to the protein content of each lysate(in milligrams). Specific binding was determined by subtracting the non-specific binding from total binding.

Kd [nM] | Binder
2.9 | B1
2 | B2
2.2 | B3
